Values joined by “and” are separate entries in the source; they are usually repeats but may differ in a detail not shown here. Identical values can stand only once.
Molecular target: standard human 20S proteasome, immunopurified from HEK293-EBNA cells (human)
Assay: mass photometry

Substance: recombinant human PA200 (proteasome activator 200) (from UniProt Q14997 1-1843) (natural protein)
- percent of total 20S bound at a PA200:20S molar ratio of 8: > 60%
- stoichiometry N (PA200 per 20S): 1 and 2

From doi:10.1101/2024.12.17.628836
